# The nanobody polyreactivity screen of Harvey et al. (2022)
# Experiment: yeast display, Sf9 membrane polyspecificity reagent, FACS + sequencing; frameworks hold sequencing errors
# Outline: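 Nanobodies from a synthetic yeast display library (Saccharomyces cerevisiae BJ5465), induced 36–48 hours with galactose, were stained 1 hour at 4 °C with 10% biotinylated, detergent-solubilized Sf9 membrane reagent, enriched on streptavidin microbeads, then FACS-sorted. Anti-HA (expression) and streptavidin (reagent binding) fluorescence set low and high (top ~1%) gates. Polyreactivity labels come from the gate of origin. Genes were colony-PCR amplified, MiSeq 2 × 250 sequenced and filtered by CDR length.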
row,Sequence,polyreactivity (PSR sort gate)
1,QVQLVESGGGLVQAGGSLRLSCAASGGTFRVYAMGWYRQAPVKERELVDAITWRGGRTYYADSVKGRFTISRDNAKNTDYFQMNSLKPEDPAVYYCAADRYGDLYDYWGQGTQVTVSS,high polyreactivity
2,QVQLVESGGGLVQAGGSLRLSCAASGGTFSFYTMGWYRQGPGKERELVAAIDSTGRTNYADSVKGRFTISRENAKNTVYLLMNSLKPDDTAVYYCSAGPPRADYDYWGQGTQVTVSS,low polyreactivity
3,QVQLVESGGGLVQAGGSLRLSCAASGGTFSYYAMGWYRQAPGKERELVAAISGNGDTTYYADSVKGRFTSSRDNAKNTVYLQMNSLKPEATAVYYCNVFVSAGEEDEYWGQGTQVTVSS,low polyreactivity
4,QVQLVESGGGLVQAGGSLRLSCAASGGTFTAYAMGWYIQAPGKERELVAAISASGDSTYYADSVKGRFTISRDIAKNTVYLQMNSLKPEDTAVYYCNADWYRTGRRGSDYWGQGTQVTVSS,low polyreactivity
5,QVQLVESGGGLVQAGGSLRLSCAASGGTFTRYTMGWYRQAHGKESELVAAISSSGGSTYYADSVKGRFTISRDNAKNTVYLQMNSLKPEDTAVYYCAAFKASSKQYPYDYWGQGTQVTVSS,high polyreactivity
6,QVQLVESGGGLVQAGGSLRLSCAASGGTFTSYAMGWYRQAPGKERELVAAISWSGGSTYYADSVKGRFTISRDNAKNTVYLQMKSLKPEDTAVYYCAAVFYRYNAVRYDYWGQGTQVTVSS,high polyreactivity
7,QVQLVESGGGLVQAGGSLRLSCAASGGTFTVNAMGLYRQAPGKERELVAAITWDGGTTYYADSVKGRFTISRDNAKNTVYLQMNSLKPEDSAVYYCAAEVDYSAFDYWGQGTQVTVSS,low polyreactivity
8,QVQLVESGGGLVQAGGSLRLSCAASGGTFVFYAMGWYIQAPGKERELVAAISSAGRTYYADAVKGRFTISRDNAKTTVYLQMNSLKPEETAVYYCAAVSSQYDGRYYYWGQGTQVTVSS,high polyreactivity
9,QVQLVESGGGLVQAGGSLRLSCAASGGTFVPNAMGWYRQAPGKERELVAAITWSGARTYYADSVKGRFTISRDNAKNTVYLQMNSLKPEDTAVYYCAAVYNYYIVYEYYYWGQGTQVTVSS,high polyreactivity
10,QVQLVESGGGLVQAGGSLRLSCAASGGTFWIYAMGWYRKAPGKERELVAGITTSGATTYYADSVKGRFTISRDNAKNTVYLQMNSLKPEDTAVYYCAADEYYRYEYWGQGTQVTVSS,low polyreactivity
11,QVQLVESGGGLVQAGGSLRLSCAASGGTFWYNAMGWYRQAPGKERELVANIRRSGDSTYYADSVKARFTISRDNAKNTVYLQMNSLKPEDTAVYYCAVSYTTYYHRYYYWGQGTQVTVSS,high polyreactivity
12,QVQLVESGGGLVQAGGSLRLSCAASGGTFYGNAMGWYRQAPGKERELVAGITDDSSTYYADSVKGRFTISRDNAKNTVYLQMNSLKPEDTAVYYCAKDLSWYYLPEVYYWGQGTQVTVSS,low polyreactivity
13,QVQLVESGGGLVQAGGSLRLSCAASGGTFYGYAAMGWYRQAPGKERELVAAISRSGGRTYYADSVKGRFTISRDNAKNTVYLQMNSLKPEDTAVYYCAARRAYSRPPRDYWGQCTQVTVSS,high polyreactivity
14,QVQLVESGGGLVQAGGSLRLSCAASGGTFYRYAMGWYRQAPGKERELVAAITSGSSTYYADSVKGRFTISRDNAKNTVYLQMNSLKPEDTAVYYCAAARYSRLSRTRPGKYGYWGQGTQVTVSS,low polyreactivity
15,QVQLVESGGGLVQAGGSLRLSCAASGGTFYVNAMGLYRQAPGKERELVAGIRESGASTYYADSVKGRFTISRDNAKNTVYFQMNSLQPEDTAVYYCAVDGPYPAASQSEVGYDYWGQGTQVTVSS,low polyreactivity
16,QVQLVESGGGLVQAGGSLRLSCAASGGTFYYYAMGWSRQAPGKERELVAAISWSGVSTSYADSVKGRFTISRDNANNTVYLQMNSLKPEDTAVYYCAAGPFYYTGYEGVYWGQGTQVTVSS,high polyreactivity
17,QVQLVESGGGLVQAGGSLRLSCAASGGTFYYYAMGWYRQAPGKEREFVAAITWTGGRTYYADSVKGRFTISRDNAKNTVYLQMNSLKPEDTAVYYCAASDRYGGRDYWGQGTQVTVSS,high polyreactivity
18,QVQLVESGGGLVQAGGSLRLSCAASGGTIDRYAMGWYRQAPGKERELVAAITKSGDRTYYADSVKGRFTISRDNAKNTVYLQMNSLKPEDTAVYYCAAAYSGLRRQNGFNYWGQGTQVTVSS,high polyreactivity
19,QVQLVESGGGLVQAGGSLRLSCAASGGTIGYNAMGWYRQAPGKERELVAAISWSGGTTYYADSVKGRFTISRDNAKNTVYLQMNSLKPEDTAVYYCNVYSRGRDDWGQGTQVTVSS,high polyreactivity
20,QVQLVESGGGLVQAGGSLRLSCAASGGTIVPNAMGWYRQAPGTERELVATLTSSDTTNYADSVKGRFTISRDNAKNTVYLQMNSLKPEDTAVYYSAASFKLGYWDYYYWGQGTQVTVSS,low polyreactivity
21,QVQLVESGGGLVQAGGSLRLSCAASGGTIYGYAAMGWYRQAPGKERELVAAISRSGGRTYYADSVKGRFTISRDNAKNTVYLQMNSRKPEDTAVYYCAARRAYSRPPRDYWGQCTQVTVSS,high polyreactivity
22,QVQLVESGGGLVQAGGSLRLSCAASGGTLDYNAMGWYRQAPGKERELVAGITSGGGTYYADSVKGRFTISRDNAKNTVYLQMNSVKPEDTAVYYCAARPWRSRYYGGLGRRFDYWGQGTQVTVSS,high polyreactivity

row,Sequence,polyreactivity (PSR sort gate)
1,QVQLVESGGGLVQAGGSLRLSCAASGGTLQGNAMGWYRQAPGKERELVAAISSRGGRTYYADSVKGRFTISRDNAKNTVYLQMNSLKPEDTAVYYCAAVQNGDSTLLRTKGGYWGQGTQVTVSS,high polyreactivity
2,QVQLVESGGGLVQAGGSLRLSCAASGGTLQGNAMGWYRQAPGKERELVAAISSRGGRTYYADSVKGRFTISRDNANNTVYLQMNSLKPEDTAVYYCAAVQKGDSTLLRTKGGYWGQGTQVTVSS,high polyreactivity
3,QVQLVESGGGLVQAGGSLRLSCAASGGTLRRYAMGWYRQAPGKERELVAGITSGGSTDYADSVKGRFTISRDNAKNTVYLQMNSLKPEDTAVYYCAALVYRPTYGYIFDYWGQGTQVTVSS,high polyreactivity
4,QVQLVESGGGLVQAGGSLRLSCAASGGTLRYYVMGWYRQAPGKDRELVAAISWAGDSTYYADSVKGRFTISRDNAKNTVYLQMNSLKPEDTAVYYCAATYYLTYYSGQANHGYDYWGQGTQVTVSS,low polyreactivity
5,QVQLVESGGGLVQAGGSLRLSCAASGGTLYYNAMGWYRQAPGKERELVAAISGRGGRTYYADSVKGRFTISRDNAKNTVYLQMNSLKPEDTAVYYFARVTNDHYDYWGQGTQVTVSS,high polyreactivity
6,QVQLVESGGGLVQAGGSLRLSCAASGGTSYAYTMGWYRQAPGKERELVAAISGSTGSTYYADSVKGRFTISRDNAKNTVYLQMNSLKPEDTAVYYCALLVGHNYWGQGTQVTVSS,low polyreactivity
7,QVQLVESGGGLVQAGGSLRLSCAASGGWYRQAPGKERELVAAISWRDSSTYYADSVKGRFTISRDNAKNTVYLQMNSLKPEDTAVYYCAVRAYPWPEYYYWGQGTQVTVSS,low polyreactivity
8,QVQLVESGGGLVQAGGSLRLSCAASGHIFANYAMGWYRQAPGKERELVAAIRWSASRTYYADSVKGRFTISRDYAKNTVFLQLNSLKPEDTAVYYCAATIYTFWAYYYDYWGQGTQVTVSS,high polyreactivity
9,QVQLVESGGGLVQAGGSLRLSCAASGHIFFYYTMGWYRQAPGKERELVAGITIGGSTNYADSVKGRFTISRDNAKNTVYLEMNSLKPEDTAVYYCNVVKYVFFYSYWEYYYWGQGTQVTVSS,low polyreactivity
10,QVQLVESGGGLVQAGGSLRLSCAASGHIFFYYTMGWYSPAPGKERELVAGITIGGSTNYADSVKGRFTISRDNAKNTVYLQMNSLKPEDTAVYYCNVVKYVYIYSYWEYYYWGQGTQVNVSS,low polyreactivity
11,QVQLVESGGGLVQAGGSLRLSCAASGHIFGGNAMGWYRQAPGKEMELVATISSGGSTHYADSVKGRFTISRDNAKNTVYLQMHSLKPEDTAVYYCAARRSYRATAYKYDYWGQGTHVTVSS,low polyreactivity
12,QVQLVESGGGLVQAGGSLRLSCAASGHIFSRYAMGWFRQAPGKERDLVATITNRGGSTYYADSVKGRFTISRDNAKNSVYLQMNSLKPEDTAVYYCARRTKSYVSHPLDYWGQGTQVTVSS,high polyreactivity
13,QVQLVESGGGLVQAGGSLRLSCAASGHTFRKYAMGWYRQAPGKERELVASITWSDGITYYADSVKGRFTISRDNAKNTVYLQMNSLKPEDTAVYYCATDLVQSEYDYWGQGTQVTVSS,low polyreactivity
14,QVQLVESGGGLVQAGGSLRLSCAASGHTFSSYAMGWYRQAPGKERELVAAISVSATRTYYADSVKGRFTISRDNAKNTVYLQMNSLKPEDTAVYYCAARPVQFTYGYWGQGTQVTVSS,high polyreactivity
15,QVQLVESGGGLVQAGGSLRLSCAASGIFEWNAMGWYRQAPRTERELVAAISNSGGSTYYADSVKGRFTISRDNAKNTVYLQMNSLKPEDNAVYYCAARSKTPAWWYWNSYYIRDYWGQATQVTVSS,high polyreactivity
16,QVQLVESGGGLVQAGGSLRLSCAASGIFGWYAMGWYRQARGKEREFVATINWSGGRTYYADSVKGRFTISRDNAKNTVYVQMNSLKPEDTAVYYCAPENYASQYDYWGQGTQVTVSS,low polyreactivity
17,QVQLVESGGGLVQAGGSLRLSCAASGIFPYNAMGWYRQAPGKERELVAAITWSDGSTYYADSVKGRFTISRDNAKNTVYLQMNSLKPEDTAVYYCNTYRNPAEDYWGQGTQVTVSS,low polyreactivity
18,QVQLVESGGGLVQAGGSLRLSCAASGIFRLNAMGWYRQAPGKERELVAAISWSGGSTRYADSVKGRFTISRDNAKNTVYLQMNSLKPEDTAVYYCAKKLRGWHTIITDYDYWGLGTQVTVSS,low polyreactivity
19,QVQLVESGGGLVQAGGSLRLSCAASGIFTYNAMGWYRQAPGKERELVASITRGGSTNYADSVKGRFTISRDNAKNTVYLQMNSLKPEDTAVYYCAARVRVYSGWLYNYWGQGTQVTVSS,high polyreactivity
20,QVQLVESGGGLVQAGGSLRLSCAASGIFVDNAMGWYRQAPGKERELVAAISGSGGSTFYADSVKGRFTISRDNAKNTVYLQLNSLKPEDTAVYYCNADVYPHPAFFVGHDYWGHGTQVTVSS,low polyreactivity
21,QVQLVESGGGLVQAGGSLRLSCAASGIFVGYTMGWYRQAPGKERELVAAIRWTDGSTYYADSVKGRFTISRDNAKNTVYLQMISLKPEDTAVYYCAADSHDPARYYYGDEFEDEYWGQGTQVTVSS,low polyreactivity
